# Experimental data: ChEMBL document CHEMBL2429837, “Identification of cryptotanshinone as an inhibitor of oncogenic protein tyrosine phosphatase SHP2 (PTPN11)” (J Med Chem, 2013)
# B1: Tyrosine-protein phosphatase non-receptor type 11 (Homo sapiens), Q06124 (protein)
# chain: MTSRRWFHPNITGVEAENLLLTRGVDGSFLARPSKSNPGDFTLSVRRNGAVTHIKIQNTGDYYDLYGGEKFATLAELVQYYMEHHGQLKEKNGDVIELKYPLNCADPTSERWFHGHLSGKEAEKLLTEKGKHGSFLVRESQSHPGDFVLSVRTGDDKGESNDGKSKVTHVMIRCQELKYDVGGGERFDSLTDLVEHYKKNPMVETLGTVLQLKQPLNTTRINAAEIESRVRELSKLAETTDKVKQGFWEEFETLQQQECKLLYSRKEGQRQENKNKNRYKNILPFDHTRVVLHDGDPNEPVSDYINANIIMPEFETKCNNSKPKKSYIATQGCLQNTVNDFWRMVFQENSRVIVMTTKEVERGKSKCVKYWPDEYALKEYGVMRVRNVKESAAHDYTLRELKLSKVGQGNTERTVWQYHFRTWPDHGVPSDPGGVLDFLEEVHHKQESIMDAGPVVVHCSAGIGRTGTFIVIDILIDIIREKGVDCDIDVPKTIQMVRSQRSGMVQTEAQYRFIYMAVQHYIETLQRRIEEEQKSKRKGHEYTNIKYSLADQTSGDQSPLPPCTPTPPCAEMREDSARVYENVGLMQQQKSFR
# Legend:
# Settings in all cases: Homo sapiens; 25 uM
# [1] = substrate: C[C@H]1COC2=C1C(=O)C(=O)c1c2ccc2c1CCCC2(C)C
# [2] = substrate: C[C@H]1COC2=C1C(=O)C(=O)c1c2ccc2c1CCCC2(C)C; remark: listed apart in the source
# [3] = substrate: C[C@H]1COC2=C1C(=O)C(=O)c1c2ccc2c1CCCC2(C)C; remark: listed apart in the source
# [4] = substrate: C[C@H]1COC2=C1C(=O)C(=O)c1c2ccc2c1CCCC2(C)C; remark: listed apart in the source
protein,measurement,setting,value
B1,kcat/Km,[1],2150 M⁻¹ s⁻¹
same,kcat,[2],0.36 s⁻¹
same,Km,[3],170 µM
same,Vmax,[4],6.96 µM/min
